Source: patent US20250302982A1 (Genmab, published 2025)

Legend:
Tissue Factor (TF) [1] = target: T1, Tissue Factor (TF) (human, UniProt P13726 33-295); experiment: cell-based or functional assay
Tissue Factor (TF) [2] = target: T1, Tissue Factor (TF); experiment: flow cytometry on HNSCC cell lines, 2 µg/ml tisotumab, PE-conjugated goat (Fab')2 anti-human IgG secondary

Binder | IC50 of cell killing (percent viable cells, Cell Titer-Blue, day 5); HNSCC cell lines with intermediate and high TF expression (Tissue Factor (TF) [1]) [ng/mL] | IC50 of cell killing (percent viable cells, Cell Titer-Blue, day 5); primary keratinocytes and VU-SCC-OE (low TF expression) (Tissue Factor (TF) [1]) [ng/mL] | binding result (Tissue Factor (TF) [2])
tisotumab vedotin (antibody, IgG1, V domains shown, MC-vc-PAB-MMAE (vcMMAE) attached to sulphydryl residues of the antibody; positions not given) VH: EVQLLESGGGLVQPGGSLRLSCAASGFTFSNYAMSWVRQAPGKGLEWVSSISGSGDYTYYTDSVKGRFTISRDNSKNTLYLQMNSLRAEDTAVYYCARSPWGYYLDSWGQGTLVTVSS VL: DIQMTQSPPSLSASAGDRVTITCRASQGISSRLAWYQQKPEKAPKSLIYAASSLQSGVPSRFSGSGSGTDFTLTISSLQPEDFATYYCQQYNSYPYTFGQGTKLEIK | 2.5 to 7 | > 25 | 
tisotumab (antibody, IgG1, V domains shown, Tested as IgG1 (IgG1-1015-011, Genmab); also called antibody 011; IgG1-1015-011) VH: EVQLLESGGGLVQPGGSLRLSCAASGFTFSNYAMSWVRQAPGKGLEWVSSISGSGDYTYYTDSVKGRFTISRDNSKNTLYLQMNSLRAEDTAVYYCARSPWGYYLDSWGQGTLVTVSS VL: DIQMTQSPPSLSASAGDRVTITCRASQGISSRLAWYQQKPEKAPKSLIYAASSLQSGVPSRFSGSGSGTDFTLTISSLQPEDFATYYCQQYNSYPYTFGQGTKLEIK |  |  | binds
